Data as given in patent US20260167699A1 (Chugai, published 2026).

B1: GpH7-A5/GpH7-B3 variant Y296_07I/GpL16-k0 (antibody, human IgG1, kappa)
heavy 1: not shown
heavy 2: not shown
light: DIVMTQSPLSLPVTPGEPASISCQASESLVHSNRNTYLHWYLQKPGQSPQLLIYKVSNRFSGVPDRFSGSGSGTDFTLKISRVEAEDVGVYYCSQNTHVPPTFGQGTKVEIERTVAAPSVFIFPPSDEQLKSGTASVVCLLNNFYPREAKVQWKVDNALQSGNSQESVTEQDSKDSTYSLSSTLTLSKADYEKHKVYACEVTHQGLSSPVTKSFNRGEC
notes: copies: 1 + 1 + 2
B2: GpH7-A5/GpH7-B3 variant T335_18N/GpL16-k0 (antibody, human IgG1, kappa)
heavy 1: not shown
heavy 2: not shown
light: DIVMTQSPLSLPVTPGEPASISCQASESLVHSNRNTYLHWYLQKPGQSPQLLIYKVSNRFSGVPDRFSGSGSGTDFTLKISRVEAEDVGVYYCSQNTHVPPTFGQGTKVEIERTVAAPSVFIFPPSDEQLKSGTASVVCLLNNFYPREAKVQWKVDNALQSGNSQESVTEQDSKDSTYSLSSTLTLSKADYEKHKVYACEVTHQGLSSPVTKSFNRGEC
notes: copies: 1 + 1 + 2
B3: GpH7-A5/GpH7-B3 variant T335_15Y/GpL16-k0 (antibody, human IgG1, kappa)
heavy 1: not shown
heavy 2: not shown
light: DIVMTQSPLSLPVTPGEPASISCQASESLVHSNRNTYLHWYLQKPGQSPQLLIYKVSNRFSGVPDRFSGSGSGTDFTLKISRVEAEDVGVYYCSQNTHVPPTFGQGTKVEIERTVAAPSVFIFPPSDEQLKSGTASVVCLLNNFYPREAKVQWKVDNALQSGNSQESVTEQDSKDSTYSLSSTLTLSKADYEKHKVYACEVTHQGLSSPVTKSFNRGEC
notes: copies: 1 + 1 + 2
B4: GpH7-A5/GpH7-B3 variant V266_08L/GpL16-k0 (antibody, human IgG1, kappa)
heavy 1: not shown
heavy 2: not shown
light: DIVMTQSPLSLPVTPGEPASISCQASESLVHSNRNTYLHWYLQKPGQSPQLLIYKVSNRFSGVPDRFSGSGSGTDFTLKISRVEAEDVGVYYCSQNTHVPPTFGQGTKVEIERTVAAPSVFIFPPSDEQLKSGTASVVCLLNNFYPREAKVQWKVDNALQSGNSQESVTEQDSKDSTYSLSSTLTLSKADYEKHKVYACEVTHQGLSSPVTKSFNRGEC
notes: copies: 1 + 1 + 2
B5: GpH7-A5/GpH7-B3 variant Y296_06M/GpL16-k0 (antibody, human IgG1, kappa)
heavy 1: not shown
heavy 2: not shown
light: DIVMTQSPLSLPVTPGEPASISCQASESLVHSNRNTYLHWYLQKPGQSPQLLIYKVSNRFSGVPDRFSGSGSGTDFTLKISRVEAEDVGVYYCSQNTHVPPTFGQGTKVEIERTVAAPSVFIFPPSDEQLKSGTASVVCLLNNFYPREAKVQWKVDNALQSGNSQESVTEQDSKDSTYSLSSTLTLSKADYEKHKVYACEVTHQGLSSPVTKSFNRGEC
notes: copies: 1 + 1 + 2
B6: GpH7-A5/GpH7-B3 variant Y296_03V/GpL16-k0 (antibody, human IgG1, kappa)
heavy 1: not shown
heavy 2: not shown
light: DIVMTQSPLSLPVTPGEPASISCQASESLVHSNRNTYLHWYLQKPGQSPQLLIYKVSNRFSGVPDRFSGSGSGTDFTLKISRVEAEDVGVYYCSQNTHVPPTFGQGTKVEIERTVAAPSVFIFPPSDEQLKSGTASVVCLLNNFYPREAKVQWKVDNALQSGNSQESVTEQDSKDSTYSLSSTLTLSKADYEKHKVYACEVTHQGLSSPVTKSFNRGEC
notes: copies: 1 + 1 + 2
B7: GpH7-A5/GpH7-B3 variant T335_13S/GpL16-k0 (antibody, human IgG1, kappa)
heavy 1: not shown
heavy 2: not shown
light: DIVMTQSPLSLPVTPGEPASISCQASESLVHSNRNTYLHWYLQKPGQSPQLLIYKVSNRFSGVPDRFSGSGSGTDFTLKISRVEAEDVGVYYCSQNTHVPPTFGQGTKVEIERTVAAPSVFIFPPSDEQLKSGTASVVCLLNNFYPREAKVQWKVDNALQSGNSQESVTEQDSKDSTYSLSSTLTLSKADYEKHKVYACEVTHQGLSSPVTKSFNRGEC
notes: copies: 1 + 1 + 2
B8: GpH7-A5/GpH7-B3 variant T335_20W/GpL16-k0 (antibody, human IgG1, kappa)
heavy 1: not shown
heavy 2: not shown
light: DIVMTQSPLSLPVTPGEPASISCQASESLVHSNRNTYLHWYLQKPGQSPQLLIYKVSNRFSGVPDRFSGSGSGTDFTLKISRVEAEDVGVYYCSQNTHVPPTFGQGTKVEIERTVAAPSVFIFPPSDEQLKSGTASVVCLLNNFYPREAKVQWKVDNALQSGNSQESVTEQDSKDSTYSLSSTLTLSKADYEKHKVYACEVTHQGLSSPVTKSFNRGEC
notes: copies: 1 + 1 + 2
B9: GpH7-A5/GpH7-B3 variant Y296_01G/GpL16-k0 (antibody, human IgG1, kappa)
heavy 1: not shown
heavy 2: not shown
light: DIVMTQSPLSLPVTPGEPASISCQASESLVHSNRNTYLHWYLQKPGQSPQLLIYKVSNRFSGVPDRFSGSGSGTDFTLKISRVEAEDVGVYYCSQNTHVPPTFGQGTKVEIERTVAAPSVFIFPPSDEQLKSGTASVVCLLNNFYPREAKVQWKVDNALQSGNSQESVTEQDSKDSTYSLSSTLTLSKADYEKHKVYACEVTHQGLSSPVTKSFNRGEC
notes: copies: 1 + 1 + 2
B10: GpH7-A5/GpH7-B3 variant V266_06M/GpL16-k0 (antibody, human IgG1, kappa)
heavy 1: not shown
heavy 2: not shown
light: DIVMTQSPLSLPVTPGEPASISCQASESLVHSNRNTYLHWYLQKPGQSPQLLIYKVSNRFSGVPDRFSGSGSGTDFTLKISRVEAEDVGVYYCSQNTHVPPTFGQGTKVEIERTVAAPSVFIFPPSDEQLKSGTASVVCLLNNFYPREAKVQWKVDNALQSGNSQESVTEQDSKDSTYSLSSTLTLSKADYEKHKVYACEVTHQGLSSPVTKSFNRGEC
notes: copies: 1 + 1 + 2
B11: GpH7-A5/GpH7-B3 variant T335_12R/GpL16-k0 (antibody, human IgG1, kappa)
heavy 1: not shown
heavy 2: not shown
light: DIVMTQSPLSLPVTPGEPASISCQASESLVHSNRNTYLHWYLQKPGQSPQLLIYKVSNRFSGVPDRFSGSGSGTDFTLKISRVEAEDVGVYYCSQNTHVPPTFGQGTKVEIERTVAAPSVFIFPPSDEQLKSGTASVVCLLNNFYPREAKVQWKVDNALQSGNSQESVTEQDSKDSTYSLSSTLTLSKADYEKHKVYACEVTHQGLSSPVTKSFNRGEC
notes: copies: 1 + 1 + 2
B12: GpH7-A5/GpH7-B3 variant V266_07I/GpL16-k0 (antibody, human IgG1, kappa)
heavy 1: not shown
heavy 2: not shown
light: DIVMTQSPLSLPVTPGEPASISCQASESLVHSNRNTYLHWYLQKPGQSPQLLIYKVSNRFSGVPDRFSGSGSGTDFTLKISRVEAEDVGVYYCSQNTHVPPTFGQGTKVEIERTVAAPSVFIFPPSDEQLKSGTASVVCLLNNFYPREAKVQWKVDNALQSGNSQESVTEQDSKDSTYSLSSTLTLSKADYEKHKVYACEVTHQGLSSPVTKSFNRGEC
notes: copies: 1 + 1 + 2

These binders were tested against T1, FcγRIIIa (human, UniProt P08637 17-208) (assay: SPR (Biacore);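 further: antibody variants captured on an SPR sensor chip, with FcγRIIIa passed over as analyte in HBS-EP+ buffer at 25 °C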).
T1 construct: extracellular domain; also called 3a; FcγRIIIa extracellular domain
T1 sequence (P08637 other isoform, or with tags, fused parts or gaps): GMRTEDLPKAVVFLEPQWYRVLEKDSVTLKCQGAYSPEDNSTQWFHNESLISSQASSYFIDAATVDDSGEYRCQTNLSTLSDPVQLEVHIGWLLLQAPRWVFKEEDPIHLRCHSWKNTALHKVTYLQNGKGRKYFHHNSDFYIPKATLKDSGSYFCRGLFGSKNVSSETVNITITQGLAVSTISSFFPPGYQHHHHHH
With B1 the “He/Con 3a” value was 75.8 % of GpH7-A5/GpH7-B3/GpL16-k0. With B2 the “He/Con 3a” value was 94.4 % of GpH7-A5/GpH7-B3/GpL16-k0. In the case of B3, the “He/Con 3a” value is reported as 99.7 % of GpH7-A5/GpH7-B3/GpL16-k0. For B4, the “He/Con 3a” value was 117 % of GpH7-A5/GpH7-B3/GpL16-k0. In the case of B5, the “He/Con 3a” value is reported as 74.6 % of GpH7-A5/GpH7-B3/GpL16-k0. With B6 the “He/Con 3a” value was 69.1 % of GpH7-A5/GpH7-B3/GpL16-k0. For B7, the “He/Con 3a” value was 100 % of GpH7-A5/GpH7-B3/GpL16-k0. With B8 the “He/Con 3a” value was 97.3 % of GpH7-A5/GpH7-B3/GpL16-k0. With B9 the “He/Con 3a” value was 51.3 % of GpH7-A5/GpH7-B3/GpL16-k0. With B10 the “He/Con 3a” value was 84.9 % of GpH7-A5/GpH7-B3/GpL16-k0. In the case of B11, the “He/Con 3a” value is reported as 93.1 % of GpH7-A5/GpH7-B3/GpL16-k0. For B12, the “He/Con 3a” value was 113 % of GpH7-A5/GpH7-B3/GpL16-k0.
